Data from US20250304918A1 (Regeneron, published 2025).

T1: mouse CACNG1 (mouse, UniProt O70578 1-223)
T1 construct: In the functional entries it is the endogenous protein on muscle of D2-mdx mice or on C2C12 myotubes
T1 sequence: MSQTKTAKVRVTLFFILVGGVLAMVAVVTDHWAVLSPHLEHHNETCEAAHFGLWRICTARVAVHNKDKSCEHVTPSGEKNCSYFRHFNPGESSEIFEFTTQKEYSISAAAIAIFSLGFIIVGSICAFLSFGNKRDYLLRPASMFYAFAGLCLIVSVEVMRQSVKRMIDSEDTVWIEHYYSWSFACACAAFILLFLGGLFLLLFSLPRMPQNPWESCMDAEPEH

B1: CACNG1 mAb #5 (antibody, V domains shown)
VH: QVQLVESGGGVVQPGTSLRLSCAASGFTFSSYGMHWVRQAPGKGLEWVAVIWIDGSNKYYADSVKGRFTISRDNSKNTLYLQMNSLRAEDTAVYYCARRGGIVVAAPFDYWGQGTLVTVSS
VL: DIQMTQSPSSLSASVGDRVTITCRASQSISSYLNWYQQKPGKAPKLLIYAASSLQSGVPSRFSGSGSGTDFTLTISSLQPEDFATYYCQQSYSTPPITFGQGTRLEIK
notes: also called Antibody Designation 5; 14574/10783
B2: CACNG1 mAb #1 (antibody, V domains shown)
VH: QVQLVESGGGVVQPGRSLRLSCTASGITFRNYGMHWVRQAPGKGLEWVAVMWYDGSNKYYADSVKGRFTISGDNSKVYLQMNSLRAEDTAVYYCARRGTIRTAAPFDYWGQGTLVTVSS
VL: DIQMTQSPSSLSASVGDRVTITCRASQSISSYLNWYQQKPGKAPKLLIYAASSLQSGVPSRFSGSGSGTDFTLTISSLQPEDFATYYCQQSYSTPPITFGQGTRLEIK
notes: On AAV particles the heavy chain was in a hIgG4US backbone, fused at its C-terminus to SpyCatcher and joined to SpyTag on the capsid; a Fab form was also used; also called anti-hCACNG1 mAb #1; anti-CACNG1 mAb #1
B3: CACNG1 mAb #3 (antibody, V domains shown)
VH: QVQLVESGGGVVQPGRSLRLSCAASGFTFSTYGMHWVRQAPGKGLEWVAVIWHDGSDKYYVDSVKGRFSIARDNSKNTLYLQMNSLRVEDTGIYYCARRGIRGTVFDHWGLGTLVTVSS
VL: DIQMTQSPSTLSASVGDRVTLTCRASQSISNKLAWYQQKPGKAPNLLIYKASNLESGVPSRFSGSGSGTEFTLTISSLQPDDFATYYCQQYNSYSWTFGQGTKVEIK
notes: On AAV particles the heavy chain was fused at its C-terminus to SpyCatcher; also called Antibody Designation 3; 14572/10717

Experiments:
[1] = target: T1, mouse CACNG1; experiment: no binding assay described; definition of the label
[2] = target: T2, human CACNG1 (Calcium Voltage-Gaged Auxiliary Subunit Gamma 1) (human, UniProt Q06432 1-222); experiment: no binding assay described; descriptor in figure legend
T2 construct: In the transduction experiments it was expressed on 293 cells, human myotubes or muscle of humanized mice; also called hCACNG1; human CACNG1 protein
T2 sequence (Q06432 whole entry): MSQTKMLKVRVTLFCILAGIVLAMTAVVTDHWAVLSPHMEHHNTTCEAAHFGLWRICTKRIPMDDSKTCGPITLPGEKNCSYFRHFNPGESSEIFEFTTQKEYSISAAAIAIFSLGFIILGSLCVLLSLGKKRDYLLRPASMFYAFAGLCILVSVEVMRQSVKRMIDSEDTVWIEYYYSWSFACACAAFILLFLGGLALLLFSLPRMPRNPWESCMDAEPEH

[3] = target: T1, mouse CACNG1; experiment: as above

Binder | binding result [1] | binding result [2] | binding result [3]
B1 | no binding | – | –
B2 | no binding | – | –
B3 | – | binds | binds
